Assay [1] addresses T1, Recombinant WNV-E protein ectodomain (West Nile virus, UniProt Q9Q6P4 291-700).
T1 construct: extracellular domain; also called rWNV-E; WNE
T1 sequence (looked up): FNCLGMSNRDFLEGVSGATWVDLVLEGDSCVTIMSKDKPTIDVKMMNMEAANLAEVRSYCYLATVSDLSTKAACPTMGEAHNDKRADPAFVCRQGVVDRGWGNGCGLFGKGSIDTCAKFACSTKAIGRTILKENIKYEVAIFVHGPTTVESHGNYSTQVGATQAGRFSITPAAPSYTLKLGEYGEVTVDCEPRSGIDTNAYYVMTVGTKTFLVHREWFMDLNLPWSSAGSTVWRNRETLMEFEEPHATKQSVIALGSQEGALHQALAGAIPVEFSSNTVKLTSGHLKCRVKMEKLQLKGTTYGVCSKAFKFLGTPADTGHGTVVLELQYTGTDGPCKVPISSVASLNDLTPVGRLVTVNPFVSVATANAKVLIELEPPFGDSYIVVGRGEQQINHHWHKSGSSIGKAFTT
In words: SPR (Biacore 3000); scFv on NTA chip via His tag, rWNV-E in solution. (Surface plasmon resonance follows binding to a sensor surface in real time, without labels.)

Assay [2] deals with T2, WNV E protein DIII displayed on yeast (Saccharomyces cerevisiae; West Nile …, UniProt Q9Q6P4 586-705).
T2 construct: domain: DIII; also called WNV DIII
T2 sequence: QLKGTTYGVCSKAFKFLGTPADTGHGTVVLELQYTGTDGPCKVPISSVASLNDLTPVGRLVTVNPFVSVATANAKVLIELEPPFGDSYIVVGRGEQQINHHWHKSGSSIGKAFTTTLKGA
Kind of assay: flow cytometry on yeast displaying WNV E DIII (pYD1); % positive cells. In general terms: A flow cytometer gives signals particle by particle.

Assay [3] concerns the target West Nile virus E protein on WNV strain 2741 virions (West Nile virus, UniProt Q9Q6P4 291-791). Kind of assay: cell-based or functional assay.
Assay [4] has as its target T1, Recombinant WNV-E protein ectodomain.
The target is the same in assay [5]. Kind of assay: SPR (Biacore); scFv-Fc captured by goat anti-human IgG on CM4 chip, rWNV-E in solution.

West Nile virus E protein on WNV strain 2741 virions, sequence (Q9Q6P4 291-791 limits assumed): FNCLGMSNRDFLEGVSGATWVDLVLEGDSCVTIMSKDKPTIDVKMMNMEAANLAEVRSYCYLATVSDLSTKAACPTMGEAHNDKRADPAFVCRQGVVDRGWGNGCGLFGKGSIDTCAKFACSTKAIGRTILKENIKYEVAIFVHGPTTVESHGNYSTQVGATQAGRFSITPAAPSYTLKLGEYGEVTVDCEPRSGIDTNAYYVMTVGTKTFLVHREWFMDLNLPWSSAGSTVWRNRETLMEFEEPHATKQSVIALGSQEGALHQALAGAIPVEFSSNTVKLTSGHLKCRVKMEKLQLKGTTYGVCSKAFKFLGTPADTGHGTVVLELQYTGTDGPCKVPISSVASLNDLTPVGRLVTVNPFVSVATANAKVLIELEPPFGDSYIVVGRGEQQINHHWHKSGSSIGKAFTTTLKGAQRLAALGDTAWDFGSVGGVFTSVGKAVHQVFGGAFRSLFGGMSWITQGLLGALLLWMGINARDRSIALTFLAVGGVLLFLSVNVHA

B1: scFv 71 (scFv)
scFv: MAQVQLVQSGAEVKKPGASVKVSCKASGYTFSGYSTHWLRQVPGQGLEWIGWDNPSSGDTTYAENFRGRVTLTRDTSITTDYLEVRGLRSDDTAVYYCARGGDDYSFDHWGQGTLVTVSSGGGGSGGGGSGGGGSSYELTQPPSASGTTGQRVTISCSGSSSNIGSNTVNWYQQLPGTAPKLLIYSNNQRPSGVPDRLSGSKSGTSASLAISGLQSEDEADYYCAAWDARLTGPLFGGGTKLSVLRQPKAAPSAAAEQKLISEEDL
notes: also called 71 scFv; antibody 71
As for B1, in assay [1], the Ka is 3.64e+07 M⁻¹; the Kd (commonly the constant that tells how readily two partners part at equilibrium) was 27.5 nM; the koff (as a rule, a measure of how fast the partners let go of each other) amounted to 0.00258 s⁻¹; the kon (commonly a measure of how fast the partners come together) is 93900 M⁻¹ s⁻¹.

B2: scFv 73 (scFv)
scFv: MAQVQLVQSGAEVKKPGASVKVSCKASGYTFSGYSTHWLRQVPGQGLEWIGWDNPSSGDTTYAENFRGRVTLTRDTSITTDYLEVRGLRSDDTAVYYCARGGDDYSFDHWGQGTLVTVSSGGGGSGGGGSGGGGSSYELTQPPSASGTPGQRVTISCSGSSSNIGSNTVNWYQQLPGTAPKLLIYSNNQRPSGVPDRFSGSKSGTSASLAISGLQSEDEADYYCAAWDARLTGPLFGGGTKLSVLRQPKAAPSAAAEQKLISEEDL
notes: also called 73 scFv; antibody 73
B2: in assay [1], the Ka was determined as 2.3e+08 M⁻¹, the Kd came to 4.35 nM, the koff turned out to be 0.00225 s⁻¹ and the on-rate (kon) turned out to be 517000 M⁻¹ s⁻¹.

B3: scFv 11 (scFv)
scFv: MAQVQLVQSGAEVKKPGASVKVSCKASGYTFSGYSTHWLRQVPGQGLEWIGWDNPSSGDTTYAENFRGRVTLTRDTSITTDYLEVRGLRSDDTAVYYCARGGDDYSFDHWGQGTLVTVSSGGGGSGGGGSGGGGSSSELTQDPAVSVALGQTVRITCRGDSLRSYYASWYQQKPGQAPVLVIYGENNRPSGIPDRFSGSSSGDTASLTITGAQAEDEADYYCNSRDSSDHLLLFGGGTKLTVLGQPKATPSAAAEQKLISEEDL
notes: also called 11 scFv; antibody 11
Regarding B3, in assay [1], the Ka was determined as 2.03e+08 M⁻¹, the Kd is 4.92 nM, the koff turned out to be 0.00161 s⁻¹ and the on-rate constant (kon) amounted to 326000 M⁻¹ s⁻¹.

B4: 10 (Fc fusion)
scFv-Fc chain: QVQLVQSGAEVKKPGSSVKVSCKASGYTFSGYSTHWLRQVPGQGLEWIGWDNPSSGDTTYAENFRGRVTLTRDTSITTDYLEVRGLRSDDTAVYYCARGGDDYSFDHWGQGTLVTVSSSGGGSGGGGSGGGGSQTVVTQEPSFSVSPGGTITLTCGLSSGSVFTSYYPSWYQQTPGQAPRTLIYSTNTRSSGVPDRFSGSILGNKAALTITGAQADDESDYYCVLYMGSGIGVFGTGTKVTVLG
notes: also called scFv-Fc 10; 10 scFv-Fc
As to B4, the binding result in assay [2] was “no binding”.

B5: scFv 85 (scFv, not shown: small tags and cut ends)
scFv: MAQVQLVQSGAEVKKPGASVKVSCKASGYTFSGYSTHWLRQVPGQGLEWIGWDNPSSGDTTYAENFRGRVTLTRDTSITTDYLEVRGLRSDDTAVYYCARGGDDYSFDHWGQGTLVTVSSGGGGSGGGGSGGGGSSSELTQDPAVSVALGQTVTITCQGGGLRNYYASWYQQKPGQAPVLLVYGRDNRPSGIPDRFSGSSSGNTASLTITGAQAEDEADYYCNSRDSSGNHLVFGGGTKLTVLGQPKATPSAAAEQKLISEEDL
notes: also called 85 scFv; antibody 85
For B5, in assay [1], the Ka was 7.45e+08 M⁻¹, the Kd was 1.34 nM, the koff came out at 0.00673 s⁻¹ and the kon was 5.01e+06 M⁻¹ s⁻¹.

B6: scFv-Fc 15 (Fc fusion)
chain: QVQLVQSGAEVKKPGASVKVSCKASGYTFSGYSTHWLRQVPGQGLEWIGWDNPSSGDTTYAENFRGRVTLTRDTSITTDYLEVRGLRSDDTAVYYCARGGDDYSFDHWGQGTLVTVSSGGGGSGGGGSGGGGSQSALTQPASVSGSPGQSITISCTGTNSDVGIYNLVSWYQQHPGKAPKLMIYDVSNRPSGVSSRFSGSNSGNTATLTISGLQAEDEADYYCSAHAGDNTQFGGGTKLTVLS
notes: also called 15 scFv-Fc
For the molecule B6, in assay [3], the “PRNT80 titer (µg/ml), plaque reduction neutralization of WNV on Vero cells” value is 1.25 µg/mL. In addition, in assay [2], the binding result is “no binding”.

B7: scFv-Fc 11 (Fc fusion)
chain: QVQLVQSGAEVKKPGASVKVSCKASGYTFSGYSTHWLRQVPGQGLEWIGWDNPSSGDTTYAENFRGRVTLTRDTSITTDYLEVRGLRSDDTAVYYCARGGDDYSFDHWGQGTLVTVSSGGGGSGGGGSGGGGSSSELTQDPAVSVALGQTVRITCRGDSLRSYYASWYQQKPGQAPVLVIYGENNRPSGIPDRFSGSSSGDTASLTITGAQAEDEADYYCNSRDSSDHLLLFGGGTKL
notes: also called 11 scFv-Fc
B7: the “PRNT80 titer (µg/ml), plaque reduction neutralization of WNV on Vero cells” value in assay [3] was found to be 1.25 µg/mL. Further, the binding result in assay [2] is on record as “no binding”.

B8: scFv 79 (scFv)
scFv: MAQVQLVQSGAEVKKPGSSVKVSCKASGGTFSSYAISWVRQAPGQGLEWMGWMNSNTGDTGYAQKFQGRVTMTRNTSTSTAYMELSSLRSEDTAVYYCAKISNYHYYAMDVWGQGTLVTVSSGGGGSGGGGSGGGGSLPVLTQPPSASGTSGQTVTISCSGGSSNIGSHLVTWYQQFPGTAPKVLIHTNDQRPSGVPDRISGSKSGTSASLAISGLQSDDEGDYYCAAWDDSLNGYVFGTGTKVTVLGQPKATPSAAAEQKLISEEDL
notes: also called 79 scFv; antibody 79
Turning to B8, in assay [1], the Ka was found to be 1.87e+08 M⁻¹, the Kd was found to be 5.35 nM, the koff worked out at 0.00067 s⁻¹ and the kon is 125000 M⁻¹ s⁻¹. Besides, in assay [4], the EC50 (read off the curve) (commonly the concentration that produces a half-maximal response) is about 0.4 µg/mL.

B9: scFv 84 (scFv)
scFv: MAQVQLVQSGAEVKKPGASVKVSCKASGYTFSGYSTHWLRQVPGQGLEWIGWDNPSSGDTTYAENFRGRVTLTRDTSITTDYLEVRGLRSDDTAVYYCARGGDDYSFDHWGQGTLVTVSSGGGGSGGGGSGGGGSQSVLTQPPSVSVAPGKTARIPCGGNNSGTKSVHWYQQKPGQAPVLVIYDDRVRPSGIPERFSGSNSGDTATLTISRVAAGDEADYYCQVSDGSGDPPTWVFGGGTRLTVLGQPKAAPSAAAEQKLISEEDL
notes: also called 84 scFv; antibody 84
Take B9: in assay [1], the Ka amounted to 2.65e+07 M⁻¹, the Kd was found to be 37.8 nM, the koff came to 0.00685 s⁻¹ and the kon is 181000 M⁻¹ s⁻¹.

B10: scFv-Fc 71 (Fc fusion)
chain: QVQLVQSGAEVKKPGASVKVSCKASGYTFSGYSTHWLRQVPGQGLEWIGWDNPSSGDTTYAENFRGRVTLTRDTSITTDYLEVRGLRSDDTAVYYCARGGDDYSFDHWGQGTLVTVSSGGGGSGGGGSGGGGSSYELTQPPSASGTTGQRVTISCSGSSSNIGSNTVNWYQQLPGTAPKLLIYSNNQRPSGVPDRLSGSKSGTSASLAISGLQSEDEADYYCAAWDARLTGPLFGGGTKLSVLR
notes: also called 71 scFv-Fc
As to B10, in assay [3], the “PRNT80 titer (µg/ml), plaque reduction neutralization of WNV on Vero cells” value was found to be 2.5 µg/mL. Further, the binding result in assay [2] is “no binding”.

B11: scFv-Fc 73 (Fc fusion)
chain: QVQLVQSGAEVKKPGASVKVSCKASGYTFSGYSTHWLRQVPGQGLEWIGWDNPSSGDTTYAENFRGRVTLTRDTSITTDYLEVRGLRSDDTAVYYCARGGDDYSFDHWGQGTLVTVSSGGGGSGGGGSGGGGSSYELTQPPSASGTPGQRVTISCSGSSSNIGSNTVNWYQQLPGTAPKLLIYSNNQRPSGVPDRFSGSKSGTSASLAISGLQSEDEADYYCAAWDARLTGPLFGGGTKLSVLR
notes: also called 73 scFv-Fc
As to B11, the “PRNT80 titer (µg/ml), plaque reduction neutralization of WNV on Vero cells” value in assay [3] came out at 1.25 µg/mL. The binding result in assay [2] is “no binding”.

B12: 79 scFv-Fc (Fc fusion)
chain: QVQLVQSGAEVKKPGSSVKVSCKASGGTFSSYAISWVRQAPGQGLEWMGWMNSNTGDTGYAQKFQGRVTMTRNTSTSTAYMELSSLRSEDTAVYYCAKISNYHYYAMDVWGQGTLVTVSSGGGGSGGGGSGGGGSLPVLTQPPSASGTSGQTVTISCSGGSSNIGSHLVTWYQQFPGTAPKVLIHTNDQRPSGVPDRISGSKSGTSASLAISGLQSDDEGDYYCAAWDDSLNGYVFGTGTKVTVLG
notes: also called scFv-Fc 79; antibody 79 (scFv-Fc)
B12: in assay [5], the Ka is 7.34e+10 M⁻¹, the Kd is 0.0136 nM, the off-rate constant (koff) is 3.58e-07 s⁻¹ and the kon is 26200 M⁻¹ s⁻¹. The “PRNT80 titer (µg/ml), plaque reduction neutralization of WNV on Vero cells” value in assay [3] was found to be 5 µg/mL. Also, the binding result in assay [2] is recorded as “no binding”.

B13: 84 scFv-Fc (Fc fusion)
chain: QVQLVQSGAEVKKPGASVKVSCKASGYTFSGYSTHWLRQVPGQGLEWIGWDNPSSGDTTYAENFRGRVTLTRDTSITTDYLEVRGLRSDDTAVYYCARGGDDYSFDHWGQGTLVTVSSGGGGSGGGGSGGGGSQSVLTQPPSVSVAPGKTARIPCGGNNSGTKSVHWYQQKPGQAPVLVIYDDRVRPSGIPERFSGSNSGDTATLTISRVAAGDEADYYCQVSDGSGDPPTWVFGGGTRLTVL
notes: also called scFv-Fc 84
Consider B13, for which the “PRNT80 titer (µg/ml), plaque reduction neutralization of WNV on Vero cells” value in assay [3] amounted to 12.5 µg/mL. The binding result in assay [2] is recorded as “no binding”.

B14: scFv 69 (scFv, not shown: small tags and cut ends)
scFv: MAQVQLVQSGAEVKEPGSSVKVSCKASGGTFSNYPISWVRQAPGQGLEWMGGIIPITNSPGYAQKFQGRVTISADESTGTVYMELSSLRSEDTAIYYCAKDPNRYESGVLHYWHGLDVWGQGTTVTVSSGGGGSGGGGSGGGGSLPVLTQPPSASGTPGQTVTLSCSGSSSNIGSNTVNWYQQLPGTAPKLLIYSNNQRPSGVPDRFSASKSGTSASLAITGLQAEDEADYFCAAWDDSLVYVFGTGTKVTVLGQPKAAPSAAAEQKLISEEDL
notes: also called 69 scFv; antibody 69
Take B14: in assay [1], the Ka was 1.69e+07 M⁻¹ and the Kd turned out to be 59.2 nM.
